The text below walks through data of IntAct's records for PubMed 9881977.

B1: Early protein (Human adenovirus C serotype 5 (HAdV-5)), P03255-2 (parent)
chain: MRHIICHGGVITEEMAASLLDQLIEEVLADNLPPPSHFEPPTLHELYDLDVTAPEDPNEEAVSQIFPDSVMLAVQEGIDLLTFPPAPGSPEPPHLSRQPEQPEQRALGPVSMPNLVPEVIDLTCHEAGFPPSDDEDEEGPVSEPEPEPEPEPEPARPTRRPKMAPAILRRPTSPVSRECNSSTDSCDSGPSNTPPEIHPVVPLCPIKPVAVRVGGRRQAVECIEDLLNEPGQPLDLSCKRPRP
partner: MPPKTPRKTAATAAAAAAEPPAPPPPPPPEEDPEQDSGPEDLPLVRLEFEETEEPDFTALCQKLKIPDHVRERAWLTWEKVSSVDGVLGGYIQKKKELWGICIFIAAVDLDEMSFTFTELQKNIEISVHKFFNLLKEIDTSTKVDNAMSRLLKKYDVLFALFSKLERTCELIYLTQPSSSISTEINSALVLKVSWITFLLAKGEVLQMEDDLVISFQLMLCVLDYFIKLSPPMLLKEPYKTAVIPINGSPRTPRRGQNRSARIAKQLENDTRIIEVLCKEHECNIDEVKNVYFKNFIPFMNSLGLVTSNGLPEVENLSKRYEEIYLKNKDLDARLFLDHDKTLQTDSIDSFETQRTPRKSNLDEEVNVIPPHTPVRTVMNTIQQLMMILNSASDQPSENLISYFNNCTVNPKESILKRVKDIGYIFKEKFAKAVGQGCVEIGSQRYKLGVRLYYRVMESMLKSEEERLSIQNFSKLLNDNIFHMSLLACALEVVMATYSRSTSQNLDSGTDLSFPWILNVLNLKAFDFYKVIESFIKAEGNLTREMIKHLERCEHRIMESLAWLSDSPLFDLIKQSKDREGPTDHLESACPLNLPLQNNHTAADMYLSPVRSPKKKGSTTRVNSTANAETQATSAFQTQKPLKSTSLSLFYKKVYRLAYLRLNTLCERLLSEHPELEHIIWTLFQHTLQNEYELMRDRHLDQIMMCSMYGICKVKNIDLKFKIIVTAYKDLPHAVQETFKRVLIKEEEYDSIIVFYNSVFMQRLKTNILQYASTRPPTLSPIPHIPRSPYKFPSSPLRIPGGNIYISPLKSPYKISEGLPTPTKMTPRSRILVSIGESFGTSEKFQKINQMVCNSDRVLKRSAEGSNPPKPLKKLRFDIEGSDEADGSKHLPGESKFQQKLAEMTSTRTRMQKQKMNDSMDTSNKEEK
B2: Early protein (Human adenovirus C serotype 5 (HAdV-5)), P03255-2 (parent)
chain: B1 chain

Variants of B1 are the subject of one assay. Particulars: with rb_human RB1, P06400.
R2G: the “effect of a mutation on the interaction” value was “decreasing interaction”.

The variants in another assay derive from B2. Particulars: with ep300_human EP300, Q09472.
ep300_human EP300, Q09472, sequence (Q09472 whole entry): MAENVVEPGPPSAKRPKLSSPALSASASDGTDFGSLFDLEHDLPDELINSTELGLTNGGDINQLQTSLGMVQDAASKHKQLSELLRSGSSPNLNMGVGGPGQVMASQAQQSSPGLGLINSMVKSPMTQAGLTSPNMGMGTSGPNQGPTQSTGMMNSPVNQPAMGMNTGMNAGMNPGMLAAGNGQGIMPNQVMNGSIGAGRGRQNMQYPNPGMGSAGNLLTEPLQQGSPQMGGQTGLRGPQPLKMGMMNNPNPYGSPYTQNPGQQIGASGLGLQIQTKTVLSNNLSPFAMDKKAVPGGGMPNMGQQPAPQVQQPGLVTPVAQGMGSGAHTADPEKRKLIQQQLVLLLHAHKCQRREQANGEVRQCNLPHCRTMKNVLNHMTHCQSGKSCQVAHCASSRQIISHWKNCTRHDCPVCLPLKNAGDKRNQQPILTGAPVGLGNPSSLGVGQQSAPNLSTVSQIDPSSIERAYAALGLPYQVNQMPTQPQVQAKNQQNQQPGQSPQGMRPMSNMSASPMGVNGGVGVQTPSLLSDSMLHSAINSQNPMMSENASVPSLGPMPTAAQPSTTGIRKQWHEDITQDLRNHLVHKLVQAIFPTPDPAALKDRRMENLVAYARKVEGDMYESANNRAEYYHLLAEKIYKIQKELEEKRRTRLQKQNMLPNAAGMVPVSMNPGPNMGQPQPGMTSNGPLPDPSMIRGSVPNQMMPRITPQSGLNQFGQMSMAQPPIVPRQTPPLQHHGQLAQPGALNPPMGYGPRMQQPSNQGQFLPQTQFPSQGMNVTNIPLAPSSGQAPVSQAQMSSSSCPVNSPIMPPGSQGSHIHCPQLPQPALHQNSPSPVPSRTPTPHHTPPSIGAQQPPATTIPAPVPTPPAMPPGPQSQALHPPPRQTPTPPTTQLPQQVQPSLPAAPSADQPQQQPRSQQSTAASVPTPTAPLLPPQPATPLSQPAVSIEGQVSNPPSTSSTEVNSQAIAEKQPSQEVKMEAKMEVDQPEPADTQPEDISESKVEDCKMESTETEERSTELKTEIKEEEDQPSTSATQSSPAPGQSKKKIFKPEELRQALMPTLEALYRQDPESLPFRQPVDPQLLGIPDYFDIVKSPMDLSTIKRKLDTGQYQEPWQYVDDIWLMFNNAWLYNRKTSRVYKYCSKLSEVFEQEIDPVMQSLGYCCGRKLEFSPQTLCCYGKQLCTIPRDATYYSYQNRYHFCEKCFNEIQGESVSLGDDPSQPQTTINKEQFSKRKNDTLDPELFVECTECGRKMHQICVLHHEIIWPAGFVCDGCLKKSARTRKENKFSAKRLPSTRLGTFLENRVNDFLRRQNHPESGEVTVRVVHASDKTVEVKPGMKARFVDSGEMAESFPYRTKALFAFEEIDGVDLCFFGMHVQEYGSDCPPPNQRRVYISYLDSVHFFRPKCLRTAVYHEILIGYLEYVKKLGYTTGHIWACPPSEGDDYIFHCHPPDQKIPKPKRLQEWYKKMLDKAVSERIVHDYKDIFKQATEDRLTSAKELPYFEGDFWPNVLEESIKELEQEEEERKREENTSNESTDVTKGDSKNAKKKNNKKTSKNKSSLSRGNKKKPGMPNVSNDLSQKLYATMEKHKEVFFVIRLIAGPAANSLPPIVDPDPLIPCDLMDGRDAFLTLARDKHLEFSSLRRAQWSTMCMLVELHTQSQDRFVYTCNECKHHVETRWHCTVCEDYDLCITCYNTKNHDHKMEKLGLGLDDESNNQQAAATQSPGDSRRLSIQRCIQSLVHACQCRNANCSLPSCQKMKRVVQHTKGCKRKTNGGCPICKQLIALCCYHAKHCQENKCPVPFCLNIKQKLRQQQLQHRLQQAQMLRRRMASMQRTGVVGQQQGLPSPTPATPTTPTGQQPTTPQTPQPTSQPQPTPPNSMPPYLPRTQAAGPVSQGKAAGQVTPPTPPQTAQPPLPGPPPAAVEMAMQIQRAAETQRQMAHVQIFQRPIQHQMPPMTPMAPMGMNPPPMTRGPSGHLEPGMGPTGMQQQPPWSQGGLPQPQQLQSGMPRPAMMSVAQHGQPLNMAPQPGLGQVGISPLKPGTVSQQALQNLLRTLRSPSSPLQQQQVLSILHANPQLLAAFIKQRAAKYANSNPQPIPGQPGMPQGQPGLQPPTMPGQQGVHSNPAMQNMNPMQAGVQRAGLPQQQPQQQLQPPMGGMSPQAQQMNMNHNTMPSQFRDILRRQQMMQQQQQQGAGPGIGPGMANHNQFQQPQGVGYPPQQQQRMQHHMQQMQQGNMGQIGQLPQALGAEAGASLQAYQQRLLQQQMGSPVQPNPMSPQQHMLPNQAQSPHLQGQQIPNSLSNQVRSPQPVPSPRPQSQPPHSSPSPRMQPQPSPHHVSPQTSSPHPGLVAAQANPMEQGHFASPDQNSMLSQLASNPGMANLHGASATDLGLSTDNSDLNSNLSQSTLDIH
Take R2G: the “effect of a mutation on the interaction” value is “disrupting interaction”.

Another assay covers variants of B2. The following applies: with stat1_human STAT1, P42224.
stat1_human STAT1, P42224, sequence (P42224 whole entry): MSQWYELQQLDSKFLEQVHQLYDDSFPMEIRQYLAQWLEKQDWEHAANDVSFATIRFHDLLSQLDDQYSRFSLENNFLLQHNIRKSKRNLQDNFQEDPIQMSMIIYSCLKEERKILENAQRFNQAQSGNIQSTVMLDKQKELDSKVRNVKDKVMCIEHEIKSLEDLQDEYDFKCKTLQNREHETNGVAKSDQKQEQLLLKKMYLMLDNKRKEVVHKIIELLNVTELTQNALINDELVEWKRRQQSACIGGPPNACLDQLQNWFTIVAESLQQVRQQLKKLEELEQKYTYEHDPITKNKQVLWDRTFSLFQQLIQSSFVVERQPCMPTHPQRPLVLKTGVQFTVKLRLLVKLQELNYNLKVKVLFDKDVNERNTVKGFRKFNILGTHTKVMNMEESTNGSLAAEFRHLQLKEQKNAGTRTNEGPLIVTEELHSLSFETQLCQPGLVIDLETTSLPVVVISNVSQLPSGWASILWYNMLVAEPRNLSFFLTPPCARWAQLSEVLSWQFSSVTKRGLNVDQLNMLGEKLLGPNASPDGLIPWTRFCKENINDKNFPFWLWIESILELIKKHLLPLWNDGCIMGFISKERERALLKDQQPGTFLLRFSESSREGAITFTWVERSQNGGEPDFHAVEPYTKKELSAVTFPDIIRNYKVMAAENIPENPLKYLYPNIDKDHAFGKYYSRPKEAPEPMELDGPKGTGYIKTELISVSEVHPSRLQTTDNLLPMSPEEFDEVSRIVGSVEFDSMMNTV
Consider R2G, for which the “effect of a mutation on the interaction” value was “decreasing interaction”.
